Assay results reported in the supplement of paper PMC9732359.
± gives the uncertainty stated by the source.

Test: protein stability index of a GFP-peptide fusion (yeast GPS) (PSI 1-4); higher = more stable; sorted into four equal gates, so the index is relative within each strain
In short: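 Each library plasmid carries Cherry plus GFP with a tiled 17-residue yeast protein peptide fused downstream, and the pooled library was carried in yeast. Mid-log cultures in leucine-free medium were sorted into four equal gates by GFP/Cherry ratio. Reads from Illumina sequencing of PCR-amplified plasmids from each gate were assigned to strains by barcodes. Per peptide, the protein stability index was computed as the summed products of gate read frequency and gate number.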

INTHIETLAYNSLKETL [SNF2]
protein stability index (doa10∆): 2.48 ± 0.054
protein stability index (pdr5∆): 2.76 ± 0.063
protein stability index (san1∆): 2.5 ± 0.047
protein stability index (ubr1∆): 2.61 ± 0.042

KNSDVWFLDHNYIENMN [RPN8]
protein stability index (doa10∆): 2.68 ± 0.1
protein stability index (pdr5∆): 2.44 ± 0.094
protein stability index (san1∆): 2.57 ± 0.11
protein stability index (ubr1∆): 2.41 ± 0.057

NILSNKPGQNNRQQKKR [RRP6]
protein stability index (doa10∆): 2.73 ± 0.18
protein stability index (pdr5∆): 3.06 ± 0.13

DKTAVKLDTEVKNTNAN [SWP82]
protein stability index (doa10∆): 2.5 ± 0.077
protein stability index (pdr5∆): 2.83 ± 0.076
protein stability index (san1∆): 2.88 ± 0.099
protein stability index (ubr1∆): 1.96 ± 0.056

RSMVRKWQTLIEANVTV [RPS1A]
protein stability index (doa10∆): 1.65 ± 0.053
protein stability index (pdr5∆): 1.62 ± 0.044
protein stability index (san1∆): 1.67 ± 0.079
protein stability index (ubr1∆): 2.24 ± 0.041

DLGITEKNDQNNDDDDN [MCD1]
protein stability index (pdr5∆): 2.97 ± 0.14
protein stability index (ubr1∆): 3.41 ± 0.24

KSIDSKTPEEVEVYAKI [ISW2]
protein stability index (doa10∆): 1.88 ± 0.078
protein stability index (san1∆): 2.88 ± 0.14
protein stability index (ubr1∆): 3.01 ± 0.12

VTSEKYPFDKLESWWLV [BRR2]
protein stability index (doa10∆): 2.42 ± 0.29
protein stability index (pdr5∆): 2.91 ± 0.19
protein stability index (san1∆): 2.79 ± 0.12
protein stability index (ubr1∆): 3.3 ± 0.087

SSTKPPGSVNSAAKYKD [NUT1]
protein stability index (doa10∆): 2.68 ± 0.064
protein stability index (pdr5∆): 2.64 ± 0.061
protein stability index (san1∆): 2.53 ± 0.1
protein stability index (ubr1∆): 2.93 ± 0.065

LTESQTETYISDLVNQG [RPN5]
protein stability index (doa10∆): 3.18 ± 0.076
protein stability index (pdr5∆): 3.38 ± 0.071
protein stability index (san1∆): 3.12 ± 0.051
protein stability index (ubr1∆): 3.21 ± 0.071

GSDEAYVKDARKDTVSR [RPC40]
protein stability index (doa10∆): 3.23 ± 0.11
protein stability index (pdr5∆): 3.17 ± 0.12
protein stability index (san1∆): 3.13 ± 0.061
protein stability index (ubr1∆): 3.35 ± 0.13

QLKFEGFALNSDIVFIH [BRR2]
protein stability index (doa10∆): 1.87 ± 0.064
protein stability index (pdr5∆): 1.71 ± 0.061
protein stability index (san1∆): 2.06 ± 0.065
protein stability index (ubr1∆): 1.81 ± 0.036

IGHLIKTRFKGSQFIVV [SMC2]
protein stability index (doa10∆): 3.5 ± 0.12
protein stability index (pdr5∆): 3.05 ± 0.084
protein stability index (san1∆): 3.38 ± 0.087
protein stability index (ubr1∆): 3.14 ± 0.08

VKEQTEAAKKSEKKAKK [RPL34A]
protein stability index (doa10∆): 3.36 ± 0.13
protein stability index (pdr5∆): 3.48 ± 0.094
protein stability index (san1∆): 3.18 ± 0.038
protein stability index (ubr1∆): 3.31 ± 0.067

IEAGRAALYKEVYNVIA [RPO21]
protein stability index (doa10∆): 2.36 ± 0.085
protein stability index (pdr5∆): 1.88 ± 0.096
protein stability index (san1∆): 2.41 ± 0.13
protein stability index (ubr1∆): 2.82 ± 0.11

WKEVMFDPSKDVLINEL [CDC53]
protein stability index (doa10∆): 2.41 ± 0.074
protein stability index (pdr5∆): 1.87 ± 0.052
protein stability index (san1∆): 1.8 ± 0.12
protein stability index (ubr1∆): 1.91 ± 0.073

VILFDSDWNPQADLQAM [ISW2]
protein stability index (doa10∆): 3.12 ± 0.088
protein stability index (pdr5∆): 2.38 ± 0.08
protein stability index (san1∆): 2.84 ± 0.11
protein stability index (ubr1∆): 2.15 ± 0.057

SDSIEKIVEIDRHIGCA [PUP2]
protein stability index (pdr5∆): 3.11 ± 0.24
protein stability index (san1∆): 2.74 ± 0.13
protein stability index (ubr1∆): 2.82 ± 0.19

FKSYATRTVITDWDPQF [SMC2]
protein stability index (doa10∆): 2.88 ± 0.11
protein stability index (pdr5∆): 3.06 ± 0.083
protein stability index (san1∆): 2.72 ± 0.12
protein stability index (ubr1∆): 2.85 ± 0.097

DYDVSKKASEISVSSRS [SRP14]
protein stability index (doa10∆): 3.52 ± 0.15
protein stability index (san1∆): 3.2 ± 0.15
protein stability index (ubr1∆): 2.98 ± 0.21

EEYARRLAEFKRRKLDL [SMC4]
protein stability index (doa10∆): 3.13 ± 0.13
protein stability index (pdr5∆): 3.46 ± 0.12
protein stability index (san1∆): 2.72 ± 0.1
protein stability index (ubr1∆): 3.31 ± 0.08

FKGLETPLKARQREMAE [YLR018C/POM34]
protein stability index (doa10∆): 3.27 ± 0.1
protein stability index (pdr5∆): 3.29 ± 0.1
protein stability index (san1∆): 2.91 ± 0.088
protein stability index (ubr1∆): 3.41 ± 0.069

ERNEQEREIMNDHSKSA [SWI3]
protein stability index (doa10∆): 3.27 ± 0.069
protein stability index (pdr5∆): 3.33 ± 0.066
protein stability index (san1∆): 3.1 ± 0.092
protein stability index (ubr1∆): 3.48 ± 0.084

VQDIIGNGKLSEHFLYL [RPN1]
protein stability index (san1∆): 3.29 ± 0.26

QQVPPLPDELTLSYDDI [DLS1]
protein stability index (doa10∆): 2.56 ± 0.045
protein stability index (pdr5∆): 2.83 ± 0.055
protein stability index (san1∆): 2.69 ± 0.05
protein stability index (ubr1∆): 2.74 ± 0.039

AMHYSSNIELAFSSVEH [COB]
protein stability index (doa10∆): 1.93 ± 0.058
protein stability index (pdr5∆): 1.9 ± 0.06
protein stability index (san1∆): 1.91 ± 0.087
protein stability index (ubr1∆): 2.09 ± 0.082

KRVPNPNFLGNCNIKDF [SWP82]
protein stability index (doa10∆): 2.05 ± 0.051
protein stability index (pdr5∆): 2.36 ± 0.04
protein stability index (san1∆): 2 ± 0.056
protein stability index (ubr1∆): 2.22 ± 0.032

VFYAELNEFFTRELAEE [RPS3]
protein stability index (doa10∆): 3.16 ± 0.13
protein stability index (pdr5∆): 3.24 ± 0.16
protein stability index (san1∆): 3.26 ± 0.09
protein stability index (ubr1∆): 3.28 ± 0.082

TKQASSFSFLNRADGTG [YLR335W/NUP2]
protein stability index (ubr1∆): 1.45 ± 0.2

DKLLDFIRYDVKTPKKT [CSN12]
protein stability index (doa10∆): 2.73 ± 0.046
protein stability index (pdr5∆): 2.64 ± 0.045
protein stability index (san1∆): 2.2 ± 0.052
protein stability index (ubr1∆): 2.99 ± 0.053

HLGERAASVIGMLVALG [RPC82]
protein stability index (doa10∆): 2.05 ± 0.23
protein stability index (pdr5∆): 1.71 ± 0.1
protein stability index (san1∆): 1.75 ± 0.21
protein stability index (ubr1∆): 2.04 ± 0.067

NVLNQINQIFSPEEQRS [GAL11]
protein stability index (doa10∆): 2.83 ± 0.045
protein stability index (pdr5∆): 2.93 ± 0.035
protein stability index (san1∆): 2.91 ± 0.039
protein stability index (ubr1∆): 2.81 ± 0.038

QLPSKFTCSCNSLTVDG [RPN14]
protein stability index (doa10∆): 2.2 ± 0.06
protein stability index (pdr5∆): 2.39 ± 0.062
protein stability index (san1∆): 2.17 ± 0.052
protein stability index (ubr1∆): 2.17 ± 0.036

GKKRFRVVTVDGKLIDI [SMC4]
protein stability index (pdr5∆): 3.49 ± 0.14
protein stability index (san1∆): 3.31 ± 0.076
protein stability index (ubr1∆): 3.55 ± 0.18

LPRKEVDDVLGGGWDNV [RPC11]
protein stability index (doa10∆): 3.17 ± 0.1
protein stability index (pdr5∆): 3.63 ± 0.14
protein stability index (san1∆): 3.26 ± 0.066
protein stability index (ubr1∆): 3.32 ± 0.099

GTIDKLQLELTIEDIAV [RPO31]
protein stability index (doa10∆): 2.41 ± 0.064
protein stability index (pdr5∆): 2.79 ± 0.057
protein stability index (san1∆): 2.3 ± 0.053
protein stability index (ubr1∆): 2.54 ± 0.046

IPQSQQVPQVRSMSGQP [SNF5]
protein stability index (doa10∆): 2.52 ± 0.05
protein stability index (pdr5∆): 2.55 ± 0.047
protein stability index (san1∆): 2.5 ± 0.047
protein stability index (ubr1∆): 2.7 ± 0.039

WIRLRTNNTIRYNAKRR [RPL39]
protein stability index (doa10∆): 2.88 ± 0.12
protein stability index (pdr5∆): 2.65 ± 0.083
protein stability index (san1∆): 2.93 ± 0.1
protein stability index (ubr1∆): 2.72 ± 0.066

EEEESILIAMQPEDLEP [RPB2]
protein stability index (san1∆): 2.33 ± 0.13

NRHNLLNDVVSFLFSAI [SWI1]
protein stability index (doa10∆): 2.19 ± 0.077
protein stability index (pdr5∆): 2.58 ± 0.05
protein stability index (san1∆): 2.4 ± 0.067
protein stability index (ubr1∆): 2.4 ± 0.043

SVEWMKVSPSMCGVIVK [SIN4]
protein stability index (doa10∆): 1.74 ± 0.055
protein stability index (pdr5∆): 1.69 ± 0.051
protein stability index (san1∆): 1.69 ± 0.091
protein stability index (ubr1∆): 1.54 ± 0.063

TRSWRPPQAGDRSLADD [RPB8]
protein stability index (doa10∆): 3.1 ± 0.11
protein stability index (pdr5∆): 3.09 ± 0.16
protein stability index (san1∆): 3.32 ± 0.13
protein stability index (ubr1∆): 3.21 ± 0.11

PFVPVLDRRFEIFFKKD [FAS1]
protein stability index (doa10∆): 2.87 ± 0.059
protein stability index (pdr5∆): 2.98 ± 0.067
protein stability index (san1∆): 2.73 ± 0.055
protein stability index (ubr1∆): 2.86 ± 0.057

KDEIVLSGNSVEDVSQN [RPL9A]
protein stability index (pdr5∆): 3.52 ± 0.26

KEDHPLEFYKDKFFNEV [SIR3]
protein stability index (doa10∆): 3.21 ± 0.086
protein stability index (pdr5∆): 3.2 ± 0.05
protein stability index (san1∆): 3.34 ± 0.055
protein stability index (ubr1∆): 3.43 ± 0.084

TDKSNSPIGFTNSPQIS [SMC2]
protein stability index (doa10∆): 3.02 ± 0.05
protein stability index (pdr5∆): 3.16 ± 0.054
protein stability index (san1∆): 3.03 ± 0.043
protein stability index (ubr1∆): 3.03 ± 0.043

LKFNHGNYSHLMEKNRI [REC8]
protein stability index (doa10∆): 2.06 ± 0.073
protein stability index (pdr5∆): 2.47 ± 0.056
protein stability index (san1∆): 2.28 ± 0.064
protein stability index (ubr1∆): 2.52 ± 0.052

EKIFHYGHVFLGITGLA [PUP3]
protein stability index (doa10∆): 1.17 ± 0.086
protein stability index (pdr5∆): 1.34 ± 0.094
protein stability index (san1∆): 1.15 ± 0.18
protein stability index (ubr1∆): 1.05 ± 0.074

SKKRKLVADGVFYAELN [RPS3]
protein stability index (doa10∆): 2.82 ± 0.24
protein stability index (pdr5∆): 1.84 ± 0.19
protein stability index (san1∆): 1.55 ± 0.13

RMVRSIMWQLLDGVSYL [SSN3]
protein stability index (doa10∆): 1.27 ± 0.078
protein stability index (pdr5∆): 1.26 ± 0.1
protein stability index (san1∆): 1.18 ± 0.12
protein stability index (ubr1∆): 1.34 ± 0.1

SLINSHLKILASSNFPF [RPC82]
protein stability index (doa10∆): 2.64 ± 0.066
protein stability index (pdr5∆): 2.3 ± 0.075
protein stability index (san1∆): 2.28 ± 0.073
protein stability index (ubr1∆): 2.02 ± 0.042

QKKRVVDPFTRKEWFDI [RPS1A]
protein stability index (doa10∆): 2.77 ± 0.15
protein stability index (pdr5∆): 3.1 ± 0.18
protein stability index (san1∆): 3.03 ± 0.08
protein stability index (ubr1∆): 3.13 ± 0.13

IREINYTMSNHGMSVDP [RPO31]
protein stability index (doa10∆): 2.87 ± 0.16
protein stability index (pdr5∆): 3.03 ± 0.2
protein stability index (san1∆): 3.03 ± 0.11
protein stability index (ubr1∆): 3.06 ± 0.13
